According to article PMC6294257, “Osteocalcin triggers Fas/FasL-mediated necroptosis in adipocytes via activation of p300” (Cell Death & Disease, 2018):

Target: the molecule itself
Test: non-reducing SDS-PAGE and immunoblot; 3T3-L1 adipocytes incubated with GluOC for 24 h; cell lysates prepared in the absence of 2-mercaptoethanol; immunoblot with antibodies to MLKL

B1: mixed-lineage kinase domain-like protein (MLKL) (natural protein, mouse (endogenous in 3T3-L1), UniProt Q9D2Y4 1-472, looked up)
chain: MDKLGQIIKLGQLIYEQCEKMKYCRKQCQRLGNRVHGLLQPLQRLQAQGKKNLPDDITAALGRFDEVLKEANQQIEKFSKKSHIWKFVSVGNDKILFHEVNEKLRDVWEELLLLLQVYHWNTVSDVSQPASWQQEDRQDAEEDGNENMKVILMQLQISVEEINKTLKQCSLKPTQEIPQDLQIKEIPKEHLGPPWTKLKTSKMSTIYRGEYHRSPVTIKVFNNPQAESVGIVRFTFNDEIKTMKKFDSPNILRIFGICIDQTVKPPEFSIVMEYCELGTLRELLDREKDLTMSVRSLLVLRAARGLYRLHHSETLHRNISSSSFLVAGGYQVKLAGFELSKTQNSISRTAKSTKAERSSSTIYVSPERLKNPFCLYDIKAEIYSFGIVLWEIATGKIPFEGCDSKKIRELVAEDKKQEPVGQDCPELLREIINECRAHEPSQRPSVDGRSLSGRERILERLSAVEESTDKKV
notes: mixed-lineage kinase domain-like protein (MLKL), endogenous in 3T3-L1 adipocytes treated with GluOC; High-dose GluOC induces phosphorylation of MLKL, printed as Thr357/Ser358; these numbers may be those of human MLKL although the cells are mouse; source: endogenous, 3T3-L1 adipocyte lysate
stoichiometry N: 3
